Data published in patent EP4497755A1 (Asociación Centro de Investigación Cooperativa en …, dated 2025).

How the values were obtained:
[1] = biological target: T1, Wnt-11 peptide LLDLERGTRESAC (human); test: peptide dot blot and peptide ELISA (Fig. 6a, b)
T1 construct: The C-terminal cysteine is not part of Wnt-11; also called wt101
T1 peptide: LLDLERGTRESAC

[2] = biological target: T2, Wnt-11 peptide LLDLERGTRESA (human); test: peptide dot blot
T2 construct: also called Wnt-11 amino acids L101-A112
T2 peptide: LLDLERGTRESA

[3] = biological target: T3, human Wnt-11 (wild-type, untagged) (human, UniProt O96014 25-354); test: immunofluorescence of non-permeabilized VCaP (Wnt-11 high) and C4-2B (Wnt-11 low) cells
T3 construct: whole, on cells; also called wild-type Wnt-11
T3 sequence (looked up): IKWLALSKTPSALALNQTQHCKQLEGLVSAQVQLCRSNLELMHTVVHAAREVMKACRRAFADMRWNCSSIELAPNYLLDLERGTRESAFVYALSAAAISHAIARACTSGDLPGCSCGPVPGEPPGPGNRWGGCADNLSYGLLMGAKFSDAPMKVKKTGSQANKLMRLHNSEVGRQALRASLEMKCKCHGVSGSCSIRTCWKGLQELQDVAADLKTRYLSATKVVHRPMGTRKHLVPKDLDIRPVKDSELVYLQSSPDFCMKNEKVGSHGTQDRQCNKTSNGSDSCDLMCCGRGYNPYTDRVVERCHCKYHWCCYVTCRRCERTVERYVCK

[4] = biological target: T4, Wnt-11 alanine replacement peptide P06 LLDLEAGTRESA (human); test: peptide ELISA, alanine replacement panel
T4 peptide: LLDLEAGTRESA

[5] = biological target: T5, Wnt-11 alanine replacement peptide P01 ALDLERGTRESA (human); test: peptide ELISA, alanine replacement panel
T5 peptide: ALDLERGTRESA

[6] = biological target: T6, Wnt-11 alanine replacement peptide P10 LLDLERGTRASA (human); test: peptide ELISA, alanine replacement panel
T6 peptide: LLDLERGTRASA

[7] = biological target: T7, Wnt-11 alanine replacement peptide P07 LLDLERATRESA (human); test: peptide ELISA, alanine replacement panel
T7 peptide: LLDLERATRESA

[8] = biological target: T8, Wnt-11 alanine replacement peptide P08 LLDLERGARESA (human); test: peptide ELISA, alanine replacement panel
T8 peptide: LLDLERGARESA

[9] = biological target: T9, Wnt-11 alanine replacement peptide P04 LLDAERGTRESA (human); test: peptide ELISA, alanine replacement panel
T9 peptide: LLDAERGTRESA

[10] = biological target: T10, Wnt-11 alanine replacement peptide P09 LLDLERGTAESA (human); test: peptide ELISA, alanine replacement panel
T10 peptide: LLDLERGTAESA

[11] = biological target: T11, Wnt-11 alanine replacement peptide P03 LLALERGTRESA (human); test: peptide ELISA, alanine replacement panel
T11 peptide: LLALERGTRESA

[12] = biological target: T12, Wnt-11 alanine replacement peptide P11 LLDLERGTREAA (human); test: peptide ELISA, alanine replacement panel
T12 peptide: LLDLERGTREAA

[13] = biological target: T13, Wnt-11 alanine replacement peptide P05 LLDLARGTRESA (human); test: peptide ELISA, alanine replacement panel
T13 peptide: LLDLARGTRESA

[14] = biological target: T14, Wnt-11 alanine replacement peptide P02 LADLERGTRESA (human); test: peptide ELISA, alanine replacement panel
T14 peptide: LADLERGTRESA

[15] = biological target: T15, Wnt-11 antibody epitope deletion mutant Wnt-11m (Wnt-11 delta 101-108, untagged) (human, UniProt O96014 25-354); test: Ab1 staining and FACS sorting of transfected HEK 293 cells, western blot of Ab1high and Ab1low populations
T15 construct: whole, on cells; also called AE
T15 sequence (looked up): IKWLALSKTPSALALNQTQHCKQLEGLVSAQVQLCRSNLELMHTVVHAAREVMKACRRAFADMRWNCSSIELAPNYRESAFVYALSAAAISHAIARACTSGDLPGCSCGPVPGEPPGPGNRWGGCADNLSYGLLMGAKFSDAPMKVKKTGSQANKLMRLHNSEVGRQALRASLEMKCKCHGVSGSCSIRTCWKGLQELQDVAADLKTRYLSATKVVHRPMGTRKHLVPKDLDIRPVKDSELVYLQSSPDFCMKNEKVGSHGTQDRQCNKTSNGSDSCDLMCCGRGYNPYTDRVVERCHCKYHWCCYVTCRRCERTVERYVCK

[16] = biological target: T16, WNT7A peptide GKELKVGSREAAC; test: peptide ELISA
T16 peptide: GKELKVGSREAAC

[17] = biological target: T17, WNT3/3A peptide DSLAIFGPVLDKATRESAC; test: peptide ELISA
T17 peptide: DSLAIFGPVLDKATRESAC

[18] = biological target: T18, WNT10A peptide YESPIFSRGFRESAC; test: peptide ELISA
T18 peptide: YESPIFSRGFRESAC

[19] = biological target: T19, WNT7B peptide GQELRVGSREAAC; test: peptide ELISA
T19 peptide: GQELRVGSREAAC

[20] = biological target: T20, WNT9A peptide RASLLKRGFKETAC; test: peptide ELISA
T20 peptide: RASLLKRGFKETAC

[21] = biological target: T2, Wnt-11 peptide LLDLERGTRESA; test: peptide ELISA
[22] = biological target: VSV-G-tagged full-length LRP6 (UniProt O75581); test: immunofluorescence colocalization in transfected cells
Chain of VSV-G-tagged full-length LRP6 (O75581 other isoform, or with tags, fused parts or gaps limits assumed): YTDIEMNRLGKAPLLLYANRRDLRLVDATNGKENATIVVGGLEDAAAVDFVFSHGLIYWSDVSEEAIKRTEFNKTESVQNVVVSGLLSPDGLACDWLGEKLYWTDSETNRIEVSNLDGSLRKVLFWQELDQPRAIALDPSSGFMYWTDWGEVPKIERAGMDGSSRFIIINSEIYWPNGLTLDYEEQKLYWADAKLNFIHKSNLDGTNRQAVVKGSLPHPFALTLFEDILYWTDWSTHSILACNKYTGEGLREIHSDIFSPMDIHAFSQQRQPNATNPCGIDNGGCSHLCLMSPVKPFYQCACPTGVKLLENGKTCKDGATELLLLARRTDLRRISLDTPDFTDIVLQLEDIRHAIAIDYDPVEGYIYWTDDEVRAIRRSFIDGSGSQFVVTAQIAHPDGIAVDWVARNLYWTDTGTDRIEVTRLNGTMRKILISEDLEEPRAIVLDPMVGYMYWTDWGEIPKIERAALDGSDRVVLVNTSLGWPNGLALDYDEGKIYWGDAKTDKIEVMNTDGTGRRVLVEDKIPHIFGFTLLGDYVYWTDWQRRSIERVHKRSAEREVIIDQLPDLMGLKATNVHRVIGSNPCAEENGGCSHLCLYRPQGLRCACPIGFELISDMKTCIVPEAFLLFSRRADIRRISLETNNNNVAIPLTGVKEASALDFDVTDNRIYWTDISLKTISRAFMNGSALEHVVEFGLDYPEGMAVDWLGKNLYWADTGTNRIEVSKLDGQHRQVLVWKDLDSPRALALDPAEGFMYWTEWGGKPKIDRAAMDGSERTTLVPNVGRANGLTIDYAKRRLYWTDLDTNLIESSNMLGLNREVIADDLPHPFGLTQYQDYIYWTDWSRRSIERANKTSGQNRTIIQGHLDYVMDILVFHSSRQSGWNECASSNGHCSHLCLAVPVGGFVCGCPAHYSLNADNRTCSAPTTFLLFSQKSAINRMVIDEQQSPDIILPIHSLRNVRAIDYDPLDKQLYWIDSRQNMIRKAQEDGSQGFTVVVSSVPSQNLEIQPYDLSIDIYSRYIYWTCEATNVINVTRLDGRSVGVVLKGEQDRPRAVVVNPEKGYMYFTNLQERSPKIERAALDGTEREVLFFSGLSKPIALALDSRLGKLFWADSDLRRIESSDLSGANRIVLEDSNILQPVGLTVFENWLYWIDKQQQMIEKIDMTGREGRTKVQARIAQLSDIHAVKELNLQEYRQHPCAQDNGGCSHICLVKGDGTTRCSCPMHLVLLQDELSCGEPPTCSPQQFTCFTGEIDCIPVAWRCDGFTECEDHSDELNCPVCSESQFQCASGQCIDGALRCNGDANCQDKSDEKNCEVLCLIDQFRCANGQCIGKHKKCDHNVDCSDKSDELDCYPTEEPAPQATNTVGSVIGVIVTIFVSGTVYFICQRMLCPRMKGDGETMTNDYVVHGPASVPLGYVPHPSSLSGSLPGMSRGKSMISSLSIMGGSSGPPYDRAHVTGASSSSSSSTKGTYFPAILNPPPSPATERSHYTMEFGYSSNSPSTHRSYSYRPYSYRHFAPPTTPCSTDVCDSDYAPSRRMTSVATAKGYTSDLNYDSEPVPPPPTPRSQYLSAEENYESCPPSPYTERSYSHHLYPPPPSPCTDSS

[23] = biological target: T1, Wnt-11 peptide LLDLERGTRESAC; test: peptide dot blot (Fig. 6a)

B1: anti-Wnt-11 rat monoclonal antibody Ab1 (E8) (antibody, rat IgG2a, V domains shown)
VH: EVELVESGGGLVQPGRSLKLSCAASGFTFSDYGMAWVRQTPTKGLEWVASITSGGGNPYYRDSVKGRFTISRDNAKNTQHLQMDSLRSEDTATYYCARHEYYGNYMTCFDYWGQGVMVTVSS
VL: AIVLNQSPSSIVASQGEKVTITCRASLSISSNYLHWYQQKPGAFPKLVIYSTSYRASGVPSRFSGSGSGTSYSFTISRVEAEDVATYYCQQGSSDPLTFGSGTKLEIK
notes: also called anti-Wnt-11-Ab1; Wnt-11 antibody E8
Question: Which results are given for B1?
Answer: binding result [1]: binds; binding result [2]: binds; binding result [3]: binds; binding result [4]: no binding; binding result [5]: no binding; binding result [6]: binds; binding result [7]: binds; binding result [8]: binds; binding result [9]: no binding; binding result [10]: binds; binding result [11]: no binding; binding result [12]: binds; binding result [13]: no binding; binding result [14]: no binding; binding result [15]: no binding (tested: Ab1 at 30 µg/ml); binding result [16]: no binding; binding result [17]: no binding; binding result [18]: no binding; binding result [19]: no binding; binding result [20]: no binding

B2: chimeric anti-Wnt-11 antibody E8h4hk (E8 IgG4k chimeric antibody) (antibody, V domains shown)
VH: EVELVESGGGLVQPGRSLKLSCAASGFTFSDYGMAWVRQTPTKGLEWVASITSGGGNPYYRDSVKGRFTISRDNAKNTQHLQMDSLRSEDTATYYCARHEYYGNYMTCFDYWGQGVMVTVSS
VL: AIVLNQSPSSIVASQGEKVTITCRASLSISSNYLHWYQQKPGAFPKLVIYSTSYRASGVPSRFSGSGSGTSYSFTISRVEAEDVATYYCQQGSSDPLTFGSGTKLEIK
notes: also called chimeric E8 (hIgG4kappa)
Question: Does B2 bind [21]?
Answer: binds

B3: human Wnt-11 (wild-type, untagged) (ligand, UniProt O96014 25-354, looked up)
chain: IKWLALSKTPSALALNQTQHCKQLEGLVSAQVQLCRSNLELMHTVVHAAREVMKACRRAFADMRWNCSSIELAPNYLLDLERGTRESAFVYALSAAAISHAIARACTSGDLPGCSCGPVPGEPPGPGNRWGGCADNLSYGLLMGAKFSDAPMKVKKTGSQANKLMRLHNSEVGRQALRASLEMKCKCHGVSGSCSIRTCWKGLQELQDVAADLKTRYLSATKVVHRPMGTRKHLVPKDLDIRPVKDSELVYLQSSPDFCMKNEKVGSHGTQDRQCNKTSNGSDSCDLMCCGRGYNPYTDRVVERCHCKYHWCCYVTCRRCERTVERYVCK
Question: What does the source list for B3?
Answer: colocalization with LRP6, Pearson [22]: 0.6; colocalization with LRP6, Spearman [22]: 0.67

B4: Wnt-11 antibody epitope deletion mutant Wnt-11m (Wnt-11 delta 101-108, untagged) (ligand, human, UniProt O96014 25-354, looked up)
chain: IKWLALSKTPSALALNQTQHCKQLEGLVSAQVQLCRSNLELMHTVVHAAREVMKACRRAFADMRWNCSSIELAPNYRESAFVYALSAAAISHAIARACTSGDLPGCSCGPVPGEPPGPGNRWGGCADNLSYGLLMGAKFSDAPMKVKKTGSQANKLMRLHNSEVGRQALRASLEMKCKCHGVSGSCSIRTCWKGLQELQDVAADLKTRYLSATKVVHRPMGTRKHLVPKDLDIRPVKDSELVYLQSSPDFCMKNEKVGSHGTQDRQCNKTSNGSDSCDLMCCGRGYNPYTDRVVERCHCKYHWCCYVTCRRCERTVERYVCK
Question: Which results are given for B4?
Answer: colocalization with LRP6, Pearson [22]: 0.4; colocalization with LRP6, Spearman [22]: 0.46

B5: anti-Wnt-11 rat monoclonal antibody Ab2 (F10) (antibody, rat IgG2c, V domains shown)
VH: EVQLVESGGGLVQPGRSLKLSCAASGFTFSNYGMAWVRQAPTKGLEWVASINYDGRNTYYRDSVKGRFTISRDNAKSTVYLQMDSLRSEDTATYYCARPQDGVIDAWGQGDSVTVSS
VL: DVVMTQTPVSLPVSLGGQASISCRSSQSLVHSNGNTYLHWYLQKPGQFPQLLIYRVSNRFSGVPDRFSGSGSGTDFTLKISRVESEDLGVYYCLQGTHLPPTFGGGTKLELK
notes: also called anti-Wnt-11-F10; Wnt-11 antibody F10
Question: Does B5 bind [2]?
Answer: binds

Question: Does B5 bind [23]?
Answer: binds
